Experimental data from paper PMC4995097, “Talin-KANK1 interaction controls the recruitment of cortical microtubule stabilizing complexes to focal adhesions” (eLife, 2016).

B1: BODIPY-labeled KANK1(30–60)C peptide (peptide)
peptide: PYFVETPYGFQLDLDFVKYVDDIQKGNTIKKC
modifications: BODIPY TMR dye coupled via the carboxy terminal cysteine
notes: KANK1, human, residues 30-60; added C-terminal cysteine; also called KANK1(30–60) peptide; source: synthetic peptide (Biomatik), dye-coupled, gel filtered
B2: BODIPY-labeled KANK2(31–61)C peptide (peptide)
peptide: PYSVETPYGYRLDLDFLKYVDDIEKGHTLRRC
modifications: BODIPY TMR dye coupled via the carboxy terminal cysteine
notes: KANK2, residues 31-61; added C-terminal cysteine; source: synthetic peptide (Biomatik), dye-coupled, gel filtered

How the values were obtained:
[1] = target: T1, talin1 R7-R8 (murine talin1 residues 1357–1653) (mouse, UniProt P26039 1357-1653); assay: fluorescence polarisation; fixed 0.5 μM BODIPY-labelled KANK peptide, increasing talin R7-R8, PBS, 100 μl, room temperature, triplicate; one site total and non-specific binding model; settings: both partners purified
T1 construct: talin1, mouse, residues 1357-1653 (R7-R8); 15N-labelled for NMR, unlabelled for fluorescence polarisation; Vector pet151-TOPO; also called talin R7-R8; wild type R7-R8
T1 sequence (P26039 1357-1653): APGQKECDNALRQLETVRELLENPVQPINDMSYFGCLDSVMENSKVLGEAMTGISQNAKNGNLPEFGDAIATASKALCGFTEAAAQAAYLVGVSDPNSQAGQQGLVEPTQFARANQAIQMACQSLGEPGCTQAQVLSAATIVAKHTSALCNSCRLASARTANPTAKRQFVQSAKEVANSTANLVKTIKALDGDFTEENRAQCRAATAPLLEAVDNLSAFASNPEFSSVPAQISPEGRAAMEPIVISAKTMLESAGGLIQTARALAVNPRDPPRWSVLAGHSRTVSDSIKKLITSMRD

talin1 R7-R8 S1641E = target: T2, talin1 R7-R8 S1641E (mouse, UniProt P26039 1357-1653, S1641E); assay: as above; settings: both partners purified
T2 construct: talin1, mouse, R7-R8 (limits as the wild type: 1357-1653) with S1641E; also called S1641E mutant; source: gene synthesized by GeneArt
T2 sequence (P26039 1357-1653 S1641E): as the sequence (P26039 1357-1653) above, with S285E counted along it

| Binder | binding result [1] | binding result (talin1 R7-R8 S1641E) |
| --- | --- | --- |
| B1 | binds | binds |
| B2 | binds | – |
